Measurements as given in patent publication US20170165338A1.

Target: HLA-A*24 (human)
Assay: UV-exchange b2m ELISA

Binder | peptide exchange yield
VFQNFPLLF | > 75%
TYLRDQHFL | > 75%
TYTQDFNKF | 50 to 75%
LYLDIINLF | > 75%
IYKVGAPTI | 50 to 75%
QYSSVFKSL | > 75%
VHIPEVYLI | 50 to 75%
FYSRLLQKF | 50 to 75%
RYSTGLAGNLL | 50 to 75%
IYQLDTASI | 50 to 75%
YYLEVGKTLI | > 75%
IYDDSFIRPVTF | 50 to 75%
EYQENFLSF | 50 to 75%
LYLKLWNLI | 50 to 75%
GFFIFNERF | 50 to 75%
FFPPTRQMGLLF | > 75%
IFIEVFSHF | 50 to 75%
IFPQFLYQF | > 75%
VFKASKITF | 50 to 75%
WYVNGVNYF | 20 to 49%
VFTSTARAF | 50 to 75%
IYTMIYRNL | > 75%
EYPLVINTL | 50 to 75%
RYFKGLVF | 50 to 75%
EFGSLHLEFL | < 20%
MYDSYWRQF | > 75%
LYLDKATLI | 50 to 75%
YFDKVVTL | 20 to 49%
SYALLTYMI | > 75%
RFHPTPLLL | > 75%
